Measurements taken from patent US20100137566A1.

Legend:
[1] = molecular target: GST-karyopherin α (karyopherin α expressed as a fusion protein with glutathione S-transferase), immobilized on glutathione Sepharose beads; test: pull-down on GST-karyopherin α beads, PCR, Phosphorimager; against untreated lysate
[2] = molecular target: GST-karyopherin α (karyopherin α expressed as a fusion protein with glutathione S-transferase), immobilized on glutathione Sepharose beads; test: pull-down on GST-karyopherin α beads, PCR; against untreated extract
[3] = molecular target: GST-karyopherin α (karyopherin α expressed as a fusion protein with glutathione S-transferase), immobilized on glutathione Sepharose beads; test: pull-down on GST-karyopherin α beads, PCR

Substance: HIV-1RF pre-integration complexes
- fold reduction of binding in the presence of 0.1 µM CNI-H0294 (small molecule) [1]: 8 fold
- fold reduction of binding in the presence of 1 µM CNI-H0294 (small molecule) [1]: 25 fold

Substance: HIV-1NLHX pre-integration complexes that lack Vpr (MA NLS+ Vpr-)
- percent reduction of binding in the presence of 1 µM CNI-H0294 (small molecule) [2]: 95%

Substance: wild-type HIV-1NLHX pre-integration complexes
- percent reduction of binding in the presence of 1 µM CNI-H0294 (small molecule) [2]: 95%

Substance: HIV-1NLHX pre-integration complexes with mutated MA NLS (MA NLS- Vpr+)
- binding as percent of that of MA NLS+ complexes (% of MA NLS+ complexes) [3]: 1 to 5
